The FLAb antibody collection (doi:10.7554/elife.23156)

B1: scFv; the commonest letter at each place (parent)
chain 1: EVKLDETGGGLVQPGRPMKLSCVASGFTFSDYWMNWVRQSPEKGLEWVAQIRNKPYNYETYYSDSVKGRFTISRDDSKSSVYLQMNNLRVEDMGIYYCTGSYYGMDYWGQGTSVTVS
chain 2: DVVMTQTPLSLPVSLGDQASISCRSSQSLVHSNGNTYLRWYLQKPGQSPKVLIYKVSNRFSGVPDRFSGSGSGTDFTLKISRVEAEDLGVYFCSQSTHVPWTFGGGTKLEIK

Experiments:
fluorescein = variants of: B1; assay: Kd (Tite-Seq); details: with fluorescein; format: scFv 4-4-20, heavy + light
[1] = variants of: B1; assay: yeast surface expression (ratio to wild type); higher = more expressed; details: format: scFv 4-4-20, heavy + light

Variant	Kd (fluorescein)	yeast surface expression [1]
chain 1 D31R M34S	≥ 10 µM	0.507
chain 1 D31P Y32K	≥ 10 µM	0.708
chain 1 D31P Y32L	≥ 10 µM	0.86
chain 1 D31P Y32W	≥ 10 µM	0.762
chain 1 D31K W36T	≥ 10 µM	0.343
chain 1 D31R Y32K V37Y	≥ 10 µM	1.3
chain 1 D31G M34C N35L	≥ 10 µM	0.825
chain 1 D31F V37E	≥ 10 µM	0.257
chain 1 D31C M34P	≥ 10 µM	0.56
chain 1 D31N N35S V37A	≥ 10 µM	0.656
chain 1 D31N N35T	≥ 10 µM	0.86
chain 1 D106I W108R	≥ 10 µM	0.422
chain 1 D106I W108Q	≥ 10 µM	0.395
chain 1 D106I W108S	≥ 10 µM	0.397
chain 1 D106I W108N	≥ 10 µM	0.254
chain 1 D106P W108K	≥ 10 µM	0.407
chain 1 D106P W108M	≥ 10 µM	0.714
chain 1 D31R N35S V37L	≥ 10 µM	0.577
chain 1 D31I W33D	≥ 10 µM	0.632
chain 1 D31L Y32N	≥ 10 µM	0.847
chain 1 D31L Y32M	≥ 10 µM	0.772
chain 1 D31T W36C	≥ 10 µM	0.789

Variant	Kd (fluorescein)	yeast surface expression [1]
chain 1 D31W W36E	≥ 10 µM	1.08
chain 1 D31V N35C	≥ 10 µM	0.424
chain 1 D106F G109A	≥ 10 µM	0.112
chain 1 D31P W33S	≥ 10 µM	0.352
chain 1 D31P W33F	≥ 10 µM	0.78
chain 1 D31K W33R V37C	≥ 10 µM	0.501
chain 1 D31N W36C	≥ 10 µM	0.275
chain 1 D31Y N35I	≥ 10 µM	0.469
chain 1 D106H Y107D	≥ 10 µM	0.284
chain 1 D106H Y107A	≥ 10 µM	0.455
chain 1 D31M Y32N	≥ 10 µM	0.536
chain 1 D31M Y32V	≥ 10 µM	0.528
chain 1 D31M Y32S	≥ 10 µM	0.804
chain 1 D31A V37E	≥ 10 µM	2.19
chain 1 D31F N35I	≥ 10 µM	1.11
chain 1 D31F N35S	≥ 10 µM	0.367
chain 1 D31M M34K	≥ 10 µM	0.564
chain 1 D106Q Y107I	≥ 10 µM	0.712
chain 1 D106M Y107C	≥ 10 µM	0.228
chain 1 D31Q N35L	≥ 10 µM	0.418
chain 1 D31Y W33F V37H	≥ 10 µM	0.788
chain 1 D31V W33K	≥ 10 µM	0.795

Variant	Kd (fluorescein)	yeast surface expression [1]
chain 1 D31V W33D	≥ 10 µM	0.821
chain 1 D31C W33C	≥ 10 µM	0.579
chain 1 D31C W33G	≥ 10 µM	0.385
chain 1 D31C W33P	≥ 10 µM	0.671
chain 1 D31F Y32V N35C	≥ 10 µM	0.0993
chain 1 D31Y W33H	≥ 10 µM	0.579
chain 1 D31Y W33C	≥ 10 µM	0.597
chain 1 D31Y W33R	≥ 10 µM	0.325
chain 1 D31H M34Q	≥ 10 µM	0.268
chain 1 D31P W36I	≥ 10 µM	0.513
chain 1 D31C W36G	≥ 10 µM	0.738
chain 1 D31E M34P	≥ 10 µM	0.406
chain 1 D31E M34N	≥ 10 µM	0.61
chain 1 D106F Y107D	≥ 10 µM	0.296
chain 1 D106F Y107G	≥ 10 µM	0.238
chain 1 D31V W36G	≥ 10 µM	2.19
chain 1 D31S W36I	≥ 10 µM	0.724
chain 1 D31S W36C	≥ 10 µM	0.929
chain 1 D31S W36S	≥ 10 µM	2.03
chain 1 D31S W36P	≥ 10 µM	3.88
chain 1 D31S M34C N35Y	≥ 10 µM	0.927

Second part, led by results:

Kd (fluorescein)	Variant	yeast surface expression [1]
8.56 µM	chain 1 D31H Y32S	0.802
0.00194 µM	chain 1 D31H Y32F	0.801
0.0302 µM	chain 1 D31P N35F	0.944
6.61 µM	chain 1 D31T V37W	0.726
≥ 10 µM	chain 1 D31T V37D	0.511
≥ 10 µM	chain 1 D31T V37S	0.269
0.00827 µM	chain 1 D31Q V37P	0.0981
≥ 10 µM	chain 1 D31L N35F	0.446
≥ 10 µM	chain 1 D106Q W108G	0.384
0.0391 µM	chain 1 D31T Y32G	0.798
≥ 10 µM	chain 1 D106I G109C	0.203
0.021 µM	chain 1 D31A M34L V37G	0.0111
≥ 10 µM	chain 1 D31A Y32K M34C	1.1
≥ 10 µM	chain 1 D31L Y32H N35V	0.343
≥ 10 µM	chain 1 D31Y W36S	0.638
≥ 10 µM	chain 1 D106K	0.415
≥ 10 µM	chain 1 D106F	0.325
5.66 µM	chain 1 D106Q	0.846
2.17 µM	chain 1 D106C	0.955
≥ 10 µM	chain 1 D106P	0.635
≥ 10 µM	chain 1 D106R	0.451
≥ 10 µM	chain 1 D106H	0.557
2.96 µM	chain 1 D106A	0.694
≥ 10 µM	chain 1 D106G	0.655
≥ 10 µM	chain 1 D106M	0.574
0.00131 µM	chain 1 D106N	0.681

Kd (fluorescein)	Variant	yeast surface expression [1]
0.0221 µM	chain 1 D106E	1.1
≥ 10 µM	chain 1 D106I	0.577
≥ 10 µM	chain 1 D106L	0.466
≥ 10 µM	chain 1 D106K G109L	0.324
≥ 10 µM	chain 1 D106H W108I	0.67
0.00468 µM	chain 1 D31H N35G	0.736
≥ 10 µM	chain 1 D31G N35A	0.664
≥ 10 µM	chain 1 D31G N35Q	0.746
≥ 10 µM	chain 1 D31G N35H	0.64
≥ 10 µM	chain 1 D31Q W33T	0.793
≥ 10 µM	chain 1 D31I Y32F	0.369
0.00444 µM	chain 1 D31I Y32A	0.779
0.579 µM	chain 1 D31C M34E	0.778
0.205 µM	chain 1 D31V V37E	0.807
0.0944 µM	chain 1 D31L Y32A	0.73
0.136 µM	chain 1 D106N Y107I G109S	0.679
0.0287 µM	chain 1 D31N W36I	0.679
0.382 µM	chain 1 D31A V37K	0.623
0.00062 µM	chain 1 D31H V37I	0.799
0.00128 µM	chain 1 D31H V37Q	0.928
3.74 µM	chain 1 D31C W33K	0.675
0.00361 µM	chain 1 D106N Y107F	0.715
0.00279 µM	chain 1 D31H M34Y	0.671
9.5 µM	chain 1 D31L V37K	0.686
0.0507 µM	chain 1 D31L V37F	0.743
